How the values were obtained:
[1] = biological target: Human EpCAM expressed on cells (CHO-hEpCAM, HCT116) (human) (UniProt P16422); assay: flow cytometry of HCT116 cells stained with PE anti-hEpCAM clone 9C4, quantified with the QuantiBrite PE bead standard curve
[2] = biological target: Human EpCAM expressed on cells (CHO-hEpCAM, HCT116) (human) (UniProt P16422); assay: flow cytometry of CHO-hEpCAM cells stained with PE anti-hEpCAM clone 9C4, quantified with the QuantiBrite PE bead standard curve
[3] = biological target: Cynomolgus EpCAM expressed on CHO cells (cynomolgus monkey); assay: flow cytometry of CHO-cynoEpCAM cells stained with PE anti-hEpCAM clone 9C4, quantified with the QuantiBrite PE bead standard curve
Sequence of Cynomolgus EpCAM expressed on CHO cells (cynomolgus monkey) (Q1WER1 24-314): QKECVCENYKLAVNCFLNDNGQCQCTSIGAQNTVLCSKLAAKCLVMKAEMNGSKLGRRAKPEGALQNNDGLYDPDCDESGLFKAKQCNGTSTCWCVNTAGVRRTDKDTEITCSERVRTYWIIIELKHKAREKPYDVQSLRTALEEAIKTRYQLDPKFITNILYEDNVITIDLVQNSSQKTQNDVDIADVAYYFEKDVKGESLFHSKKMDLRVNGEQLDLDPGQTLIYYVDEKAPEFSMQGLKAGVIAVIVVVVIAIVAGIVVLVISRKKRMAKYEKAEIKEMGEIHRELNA

FcγRI (CD64) (human) = FcγRI (CD64) (human) (UniProt P12314); assay: SPR, His-captured FcγRI, antibody analyte, 1:1 model, PBST pH 7.4
Sequence of FcγRI (CD64) (human) (P12314 16-292): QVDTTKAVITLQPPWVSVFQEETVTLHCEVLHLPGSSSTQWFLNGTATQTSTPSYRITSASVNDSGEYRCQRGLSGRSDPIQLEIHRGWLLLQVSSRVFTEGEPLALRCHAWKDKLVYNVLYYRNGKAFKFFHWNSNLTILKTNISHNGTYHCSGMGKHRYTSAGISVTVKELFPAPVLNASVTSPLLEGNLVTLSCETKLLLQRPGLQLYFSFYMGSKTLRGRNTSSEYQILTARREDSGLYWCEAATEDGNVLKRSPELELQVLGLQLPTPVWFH

FcRn (human) = FcRn (human) (UniProt P55899); assay: SPR, antibody immobilised, FcRn analyte, steady state model, pH 6.0
[4] = biological target: FcγRIIb/c (CD32b/c) (human) (UniProt P31994); assay: SPR, His-captured FcγRIIb/c, antibody analyte, steady state model, HBS-EP+
Sequence of FcγRIIb/c (CD32b/c) (human) (P31994 43-217): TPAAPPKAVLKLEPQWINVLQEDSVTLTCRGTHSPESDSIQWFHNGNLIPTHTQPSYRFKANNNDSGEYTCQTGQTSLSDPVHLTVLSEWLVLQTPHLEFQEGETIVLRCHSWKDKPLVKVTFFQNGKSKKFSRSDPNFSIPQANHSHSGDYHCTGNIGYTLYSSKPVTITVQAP

[5] = biological target: FcγRIIIa F158 (CD16a) (human) (UniProt P08637); assay: SPR, His-captured FcγRIIIa F158, antibody analyte, steady state model, HBS-EP+ (FIG. 31)
Sequence of FcγRIIIa F158 (CD16a) (human) (P08637 17-208): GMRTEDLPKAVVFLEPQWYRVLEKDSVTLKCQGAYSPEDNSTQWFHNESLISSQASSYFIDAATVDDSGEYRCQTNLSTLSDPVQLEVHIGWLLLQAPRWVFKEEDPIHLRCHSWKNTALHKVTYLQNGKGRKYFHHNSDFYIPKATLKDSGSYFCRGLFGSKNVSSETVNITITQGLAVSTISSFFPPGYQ

FcγRIIIb (CD16b) (human) = FcγRIIIb (CD16b) (human) (UniProt O75015); assay: SPR, His-captured FcγRIIIb (CD16b), antibody analyte, steady state model, HBS-EP+ (legend of FIG. 32; receptor printed as FcγRIIIa)
Sequence of FcγRIIIb (CD16b) (human) (O75015 17-200 limits assumed): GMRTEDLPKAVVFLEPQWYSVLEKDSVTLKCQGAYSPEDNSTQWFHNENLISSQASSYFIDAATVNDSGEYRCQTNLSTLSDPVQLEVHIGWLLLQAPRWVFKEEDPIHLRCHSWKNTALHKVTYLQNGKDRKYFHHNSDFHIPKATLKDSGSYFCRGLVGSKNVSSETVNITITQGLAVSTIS

Sequence of Human EpCAM expressed on cells (CHO-hEpCAM, HCT116) (human) (P16422 24-314): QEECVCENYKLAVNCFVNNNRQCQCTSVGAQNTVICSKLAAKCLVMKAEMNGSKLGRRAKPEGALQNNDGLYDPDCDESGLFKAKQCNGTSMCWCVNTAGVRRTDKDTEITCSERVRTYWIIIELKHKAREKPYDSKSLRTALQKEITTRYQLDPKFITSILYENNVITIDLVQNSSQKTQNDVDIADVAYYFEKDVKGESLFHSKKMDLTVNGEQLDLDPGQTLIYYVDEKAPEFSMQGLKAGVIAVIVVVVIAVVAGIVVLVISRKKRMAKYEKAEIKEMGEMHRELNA

Row | Antibody per cell (Antibody per cell) [1] | Antibody per cell (Antibody per cell) [2] | Antibody per cell (Antibody per cell) [3] | Kd (FcγRI (CD64) (human)) | Kd (FcRn (human)) | Kd [4] | Kd [5] | Kd (FcγRIIIb (CD16b) (human)) | Substance
1 | 412000 | 194000 | 231000 |  |  |  |  |  | Mouse anti-hEpCAM conjugated to PE, clone 9C4 (antibody)
2 |  |  |  | 1.18 nM | 366 nM | 4200 nM | 860 nM | 6500 nM | IgG1-ctrl mAb (antibody)

From patent US20260226187A1
